Results published in PMC11947285 (Nature Communications, 2025).

Biological target: the molecule itself
Assay: cryo-EM structure

B1: human XPR1 (Xenotropic and polytropic retrovirus receptor 1) (natural protein, UniProt Q9UBH6-1 1-696, looked up)
chain: MKFAEHLSAHITPEWRKQYIQYEAFKDMLYSAQDQAPSVEVTDEDTVKRYFAKFEEKFFQTCEKELAKINTFYSEKLAEAQRRFATLQNELQSSLDAQKESTGVTTLRQRRKPVFHLSHEERVQHRNIKDLKLAFSEFYLSLILLQNYQNLNFTGFRKILKKHDKILETSRGADWRVAHVEVAPFYTCKKINQLISETEAVVTNELEDGDRQKAMKRLRVPPLGAAQPAPAWTTFRVGLFCGIFIVLNITLVLAAVFKLETDRSIWPLIRIYRGGFLLIEFLFLLGINTYGWRQAGVNHVLIFELNPRSNLSHQHLFEIAGFLGILWCLSLLACFFAPISVIPTYVYPLALYGFMVFFLINPTKTFYYKSRFWLLKLLFRVFTAPFHKVGFADFWLADQLNSLSVILMDLEYMICFYSLELKWDESKGLLPNNSEESGICHKYTYGVRAIVQCIPAWLRFIQCLRRYRDTKRAFPHLVNAGKYSTTFFMVTFAALYSTHKERGHSDTMVFFYLWIVFYIISSCYTLIWDLKMDWGLFDKNAGENTFLREEIVYPQKAYYYCAIIEDVILRFAWTIQISITSTTLLPHSGDIIATVFAPLEVFRRFVWNFFRLENEHLNNCGEFRAVRDISVAPLNADDQTLLEQMMDQDDGVRNRQKNRSWKYNQSISLRRPRLASQSKARDTKVLIEDTDDEANT
- stoichiometry N: 2
